Experiments:
[1] = target: PRX1, recombinant (Chlamydomonas reinhardtii)
[2] = target: PRX1, recombinant (Chlamydomonas reinhardtii); remark: listed apart in the source

maximal electron transfer rate to PRX1 at saturating Ca2+ against WT CRX (Supplementary Fig. 1b) [1] [fold]	reduction of PRX1 by CRX (NADPH oxidation) without Ca2+ (EGTA added) against with Ca2+ [2] [fold]	Substance
3	–	calredoxin (CRX) Lys263Ile, recombinant (enzyme)
–	10	calredoxin (CRX), wild type, recombinant (enzyme)

Source: PMC4911631
